{
  "source": "patent KR20150068913A",
  "binders": {"B1": {"name": "이 건 항체 2 (antibody, V domains shown)", "VH": "EVQLVESGAEVKKPGASVKVSCKASGYTFTSYDVSWVRQAPGQGLEWMGWISAYRGNTKYAQKFQGRVTMTTDTSTSTAYMELRSLRSDDTAVYYCARAKSHPYYDFWSGYYVPGAFDIWGQGTMVTVSS", "VL": "ELQMTQSPSSLSASVGDRVTITCQASQDISNYLTWYQQKPGKAPKLLIYDASNLETGVPSRFSGSGSGTDFTFTISSLQPEDIATYYCQQYDNLPPTFGGGTKVEIKR"}},
  "biological_target": "광견병 바이러스 CVS-11의 야생형 G 단백질 (rabies virus CVS-11) (UniProt O92284)",
  "sequence (O92284 20-524 limits assumed)": "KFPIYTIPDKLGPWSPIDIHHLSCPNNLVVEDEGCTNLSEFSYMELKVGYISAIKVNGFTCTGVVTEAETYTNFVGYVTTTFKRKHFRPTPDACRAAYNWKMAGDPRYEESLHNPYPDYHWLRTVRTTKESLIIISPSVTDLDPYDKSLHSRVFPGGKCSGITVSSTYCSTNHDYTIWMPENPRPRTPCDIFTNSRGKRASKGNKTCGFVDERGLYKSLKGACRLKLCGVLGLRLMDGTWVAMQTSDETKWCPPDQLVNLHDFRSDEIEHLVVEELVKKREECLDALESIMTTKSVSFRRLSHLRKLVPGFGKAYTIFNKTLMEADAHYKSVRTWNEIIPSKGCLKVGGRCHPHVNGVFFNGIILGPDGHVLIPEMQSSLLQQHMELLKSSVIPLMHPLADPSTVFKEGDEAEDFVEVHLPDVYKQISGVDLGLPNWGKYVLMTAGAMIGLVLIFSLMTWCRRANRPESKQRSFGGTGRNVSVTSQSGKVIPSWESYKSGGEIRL",
  "assay": "cell-based or functional assay",
  "data": [
    {"binder": "B1", "values": [
      {"measurement": "RFFIT IU/mL, CVS-11", "result": 1.59, "unit": "IU/mL"},
      {"measurement": "RFFIT IU/mg, CVS-11 (중화능력)", "result": 7940, "unit": "IU/mg"},
      {"measurement": "RFFIT Titer, CVS-11", "result": 270}
    ]}
  ]
}
